Reference: patent US20250188193A1 (ROCKEFELLER UNIVERSITY, published 2025)
Numbering of substitutions follows the chain as printed.

Key:
[1] = molecular target: T1, anti-NP antibody 3B62, afucosylated IgG (monomeric, or as immune complex with NP-BSA) (chain 1 pos 82 (Asn297 EU): afucosylated N-glycan; the Fc is a disulfide-linked homodimer; in FIG. 11E it is complexed with NP-BSA through the Fab arms); test: competition ELISA: nanobody pre-complexed with monomeric afucosylated 3B62, then captured on coated FcγRI; the blocked ligand is FcγRI
T1 construct: Immune complexes made with NP-BSA (27 conjugations) at a 10:1 molar ratio; also called monomeric 3B62; IgG immune complexes
Method: Recombinant FcγR ectodomains were expressed in Expi-293F and purified with Ni-NTA resin as in previously described protocols (S. Chakraborty et al., Sci. Transl. Med., eabm7853 (2022)). […] Plates were then blocked with PBS plus 2% (w/v) BSA. IgG immune complexes were prepared by incubation of an anti-NP (4-hydroxy-3-nitrophenylacetyl) antibody 3B62 with NP-BSA (27 conjugations) at a 10:1 molar ratio for 1h at 4° C. […] IgG immune complexes or monomeric 3B62 were brought to a concentration of 20 ug ml⁻¹ or 2 μg/ml respectively and pre-complexed at a 1:1 (v/v) ratio for 1h at room temperature and then captured on FcγR-coated plates. Following 1h incubation, bound IgG was detected using a 1:5000 dilution of horseradish peroxidase (HRP)-conjugated goat F(ab′)₂ anti-human IgG (H+L) (Jackson Immunoresearch). Plates were developed with TMB (3,3′,5,5′-tetramethylbenzidine) two-component peroxidase substrate kit. Reactions were quenched with 1M phosphoric acid. Absorbance at 450 nm was recorded using a SpectraMax Plus spectrophotometer (Molecular Devices). Background absorbance was subtracted for samples, and % maximum binding was determined against an IgG or immune complex only control.

[2] = molecular target: T2, IgG1 S2G2 glycoform (antibody clone not named); test: ELISA with B7; the concentration of the IgG1 glycoform is varied
T2 construct: also called afucosylated form of IgG1

[3] = molecular target: T3, aglycosylated 3B62 N297A mutant (aglycosylated (no N-glycan after N297A); the Fc is a disulfide-linked homodimer); test: SPR (Biacore T200)
T3 construct: 297 is an EU position, not a position on the UniProt entry; also called aglycosylated N297A IgG1 mutant; aglycosylated IgG
Method: Traces are raw data, while 1:1 Langmuir global kinetic fits are shown in black.
Surface Plasmon Resonance (SPR) was performed on a Biacore T200 machine (Cytiva Life Sciences). In some experiments, purified IgG glycoforms diluted in HBS-EP+ were immobilized on the surface of a Protein A or Protein G CM5 sensor chip at 1000 RU (˜50 nM). Purified nanobodies were flowed over IgG-bound sensor chips at the indicated concentrations at 30 uL/minute for 60 seconds, followed by 600 seconds of dissociation. Sensor chips were regenerated with 10 mM Glycine-HCl pH 1.5.

[4] = molecular target: T4, Rituximab G2 (galactosylated afucosylated glycoform); test: SPR (Biacore T200), 1:1 Langmuir kinetic fit
T4 construct: Whole IgG1; also called G2-Rituximab; G2 glycoform of IgG1 Fc

B1: X0 (VHH)
VHH: QVQLQESGGGLVQAGGSLRLSCAASPGISRYKTMGWYRQAPGKERSFVAAITWGGLTYYADSVKGRFTVSRDNAKNTVYLQMNSLKPEDTAVYYCSVDGGTRADPYHYYWGQGTQVTVSS
notes: also called clone X0; not shown: His tag and AviTag from the pET26-b(+) construct
IC50 (read off the curve) [1]: ~1000 nM

B2: B7 (VHH, not shown: small tags and cut ends)
VHH: B1 VHH with P26G, S46E, A50G, L56S, V69I, R102Y
notes: also called clone B7; nanobody B7
EC50 (read off the curve) [2]: ~0.4 µg/mL | binding result [3]: no binding (tested: top concentration 256 nM)

B3: C11 (VHH, not shown: small tags and cut ends)
VHH: B1 VHH with P26G, G27Y, K32H, S46E, A50G, L56S, V69I, S96A, R102Y
notes: also called clone C11; C11 parental clone
Kd [4]: 22.8 µM

B4: mC11 (VHH)
VHH: B1 VHH with S29Y, M34I, G35A, Y59R, D104Q, Y106V
notes: also called clone mC11; not shown: His tag and AviTag from the pET26-b(+) construct
IC50 (read off the curve) [1]: ~400 nM
